Experimental findings from publication PMC5830076 are described below.

The assay deals with ARΔ423-448 (Flag-AR with residues 423 to 448 removed) (human) (UniProt P10275). The assay can be described thus: proximity ligation.

Turning to “Myc-RAP74-CTD (from UniProt P35269 450-517) (domain or fragment)”, the reduction of the interaction against WT AR (PLA) was determined as 40%.
